The record followed here is the nanobody polyreactivity screen of Harvey et al. (2022).

The nature of this series: yeast display, Sf9 membrane polyspecificity reagent, FACS + sequencing; frameworks hold sequencing errors. Summed up:
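In a synthetic yeast display library (Saccharomyces cerevisiae BJ5465), nanobody expression was induced with galactose for 36–48 hours. FACS gates were set low and high (top ~1%) using anti-HA fluorescence for expression and streptavidin fluorescence for binding of the Sf9 membrane reagent. Each polyreactivity label is drawn from the gate of origin.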
For “QVQLVESGGGLVQAGGSLRLSCAASGRIFYLYAMGWYRQAPGKERELVATINTSGGITYYADSVKGRFTISRDNAKNTVYLQMNSLKPEDTAVYYCNADWEWQYFYFRPGGYWGQGTQVTVSS”, the “polyreactivity (PSR sort gate)” value was “low polyreactivity”. The result for “QVQLVESGGGLVQAGGSLRLSCAASGRIFYLYAMGWYRQATGKERELVAAITWSGGSTTYADSVKGRFTISRDTAKNTVYLQMNSLNPEDTAVYYCNADGWIFPSFSPMDYWGQGTQVTVSS” reads “low polyreactivity”; that for “QVQLVESGGGLVQAGGSLRLSCAASGRIFYNNAMGWYRQAPGKERELVAGISRSSGRTYYADSVKGRFTISRDIAKNTVYLQMNSLKPEDTAVYYCNTVSWPLSSKYYYWGQGTQVTVSS”, “high polyreactivity”; that for “QVQLVESGGGLVQAGGSLRLSCAASGRIFYNYAMGWSRQAPGKERELVAANSGSGGSTYYADSVKGRFTISRDSAMNTVYFQMNSLKPEDTAVYYCSTSGPQYYSRNFDYWGQGTQVTVSS”, “low polyreactivity”. The result for “QVQLVESGGGLVQAGGSLRLSCAASGRIFYNYAMGWYRPAPGKDRVLVAAISVSGGSTYYADSEKGRFTISRDNAKNTVYLQMNSLKPEDTAVYYCAARRDRGYTREYWGQGTQVTVST” reads “high polyreactivity”. The result for “QVQLVESGGGLVQAGGSLRLSCAASGRIFYNYAMGWYRQAPGKERELVAAISGSGGSTYYADSVKGRFTISRDNAKNTVYLQMNSLTPEDTAVYYCSTSGPQYYSRNFDYWGQGTQVTVSS” reads “low polyreactivity”; that for “QVQLVESGGGLVQAGGSLRLSCAASGRIFYNYAMGWYRQAPGKERELVAAISGSGGSTYYADSVKGRFTISRDNAMNTVYLQMNSLKPEDTAVYYCSTSGPQYYSRNFDYWGQGTQVTVSS”, “low polyreactivity”; that for “QVQLVESGGGLVQAGGSLRLSCAASGRIFYPNVMGWYRQAPGKERELVAAISASGGRTYYADSVKGRFTISRDNAKNTVYLQMNSLKPEDTAVYYCAADTVPSTRSWDTRYWEYEYWGQGTQVTVSS”, “low polyreactivity”. Consider “QVQLVESGGGLVQAGGSLRLSCAASGRIFYPYAMGWYRQAPGKERELVAAISWSTGNTYYADSVKGRFTISRDNAKNTVYLQMNSLKPEDTAVYYCNARLAPVRRYWYSGYDYWGQGTQVTVSS”, for which the “polyreactivity (PSR sort gate)” value is listed as “high polyreactivity”.

On to “QVQLVESGGGLVQAGGSLRLSCAASGRIFYPYAMGWYRQAPGKEWELVAAINRSAGSTSYADSVKGRFTISRDNAKNTVYLQMKSLKPEDTAVYYCAAQGRWHRHFDYWGQGTQVNVSS”, for which the “polyreactivity (PSR sort gate)” value is reported as “high polyreactivity”. To “QVQLVESGGGLVQAGGSLRLSCAASGRIFYPYSMGWYRQAPGKERELVASINYRGGSTYYADSVNGRFTISRDNAKNTVYLQMNSLKPEDTAVYYCNAVRGFYRYSSSMGYWGQGTQVTVSS” belongs “high polyreactivity”; to “QVQLVESGGGLVQAGGSLRLSCAASGRIFYPYVMGWYRQAPGKERELVAAISASGGRTYYADSVKGRFTISRDNAKNTVYLQMNSLKPEDTAVYYCAAQGWRYYRTVVPMDYWGQGTQVTVSS”, “low polyreactivity”; to “QVQLVESGGGLVQAGGSLRLSCAASGRIFYPYVMGWYRQAPGKERELVAAISDSTGSTYYADSVKGRFTISRDNAKNTVYLQMNSLKPEDTAVYYCAAGWFYATYWRFYYWGQGTQVTVSS”, “low polyreactivity”. The result for “QVQLVESGGGLVQAGGSLRLSCAASGRIFYQNAMGWYRQAPGKERELVADISSGGSTYYADSVKGRFTISRDNAKNTVYLQMNSLKPEDTAVYYCAAEGQLFDLYDYWGQGTQVTVSS” reads “low polyreactivity”. To “QVQLVESGGGLVQAGGSLRLSCAASGRIFYRNAMGWYRPAPGKERELVAAISGSGGSTSYADSVKGRFTISRDNAKNTVYLQMNSLKPEDTAVYYCAAYKLYWGQGTQVTVSS” belongs “high polyreactivity”.

With “QVQLVESGGGLVQAGGSLRLSCAASGRIFYRNAMGWYRQAPGKERELVAAISSSTGSTYYADSVKGRFTISRDNAKNTVYLQMNSLKPEDTAVYYCNTARNRARYYYWGQGTQVTVSS”, the “polyreactivity (PSR sort gate)” value is recorded as “high polyreactivity”.

As for “QVQLVESGGGLVQAGGSLRLSCAASGRIFYRNAMGWYRQAPGKERELVAAITIGTNTYYADSVKGRFTISRDNAKITVYLQMNSLKPEDTAVYYCAVAVFLYTGGVDYWGQGTQVTVSS”, the “polyreactivity (PSR sort gate)” value was “low polyreactivity”. To “QVQLVESGGGLVQAGGSLRLSCAASGRIFYRYAMGWYIQAPAKERELFAAITGSGGSTYYADSVKGRFTISRDNAKNTVYFQMNSLKPEDTAVYYCNAVERSAFRGVRFDYDYWGQGTQVTLSS” belongs “high polyreactivity”; to “QVQLVESGGGLVQAGGSLRLSCAASGRIFYRYAMGWYRQAPGKERELVAGITRGGSTYYADSVKGRFTISRDNAKNTVYLQMNSLKPEDTAVYYCNVRWSPAGTGLLDFWGQGSQVTVSS”, “high polyreactivity”.

For “QVQLVESGGGLVQAGGSLRLSCAASGRIFYRYAMGWYRQAPGKERELVASISGSGGRTYYADSVKGRFTISRDNAKNTVYLQMNSLKPEDTAVYYCAARIRPSYDWGQGTQVTVSS”, the “polyreactivity (PSR sort gate)” value is given as “high polyreactivity”. The result for “QVQLVESGGGLVQAGGSLRLSCAASGRIFYRYAMGWYRQAPWKEWELVADISSGTSTNYADSVKGRFTLSRDNAKNTVDLQMNSLKPEDTAVYYCAADEVRSAWRCSSPPDYDHWGQGTQVTVSS” reads “low polyreactivity”; that for “QVQLVESGGGLVQAGGSLRLSCAASGRIFYSNAMGWYRQAPGKERELVAAISWSTGSTYYADSVKGRFTISRDHAKNTVYLQMNSLKPEDTAVYYCYKDDAQTRSFASTWYDYWGQGTQVTVSS”, “high polyreactivity”; that for “QVQLVESGGGLVQAGGSLRLSCAASGRIFYSNAMGWYRQAPGKERELVAAITRSGGGTYYADSVKGRFTISRDNAKNTVYLQMNSLKPEDTAVYYCARPAFFRSLSTSDDYWGQGTQVTVSS”, “high polyreactivity”. The result for “QVQLVESGGGLVQAGGSLRLSCAASGRIFYSNAMGWYRQAPGKERELVATISTGGSTYADSVKGRFTISRDNAKNTVYLQMNSLKPEETAVYYCAVDEWRWRVGAVAYYYWGQGTQVTVSS” reads “low polyreactivity”; that for “QVQLVESGGGLVQAGGSLRLSCAASGRIFYSNTMGWYRQAPGKERELVARIDTGGGSTYADSVKGRFTISRDNAKNTVYLQMNSLKPEDTAVYYCAALKFEAWAGEDYWGQGTQVTVSS”, “low polyreactivity”; that for “QVQLVESGGGLVQAGGSLRLSCAASGRIFYSNTMGWYRQAPGKERELVARIDTGGGSTYADSVKGRFTISRDNAKNTVYLQMNSLKPEDTAVYYCAKTIAVNTWYYYWGQGTQVTVSS”, “low polyreactivity”. To “QVQLVESGGGLVQAGGSLRLSCAASGRIFYSNTMGWYRQAPGKERELVARIDTGGGSTYADSVKGRFTISRDNAKNTVYLQMNSLKPEDTAVYYCNKKGRWRSWGSTSLVSMDYWGQGTQVTVSS” belongs “low polyreactivity”. On to “QVQLVESGGGLVQAGGSLRLSCAASGRIFYSNVMGWYRQAPGKERELVAAISGRTGGTYYADSVKGRFTISRDNAKNTVYLQMNSLIPEDTAVYYCAARVIYYYGSGPYDYWGQGTQVTVSS”, for which the “polyreactivity (PSR sort gate)” value is on record as “low polyreactivity”. The result for “QVQLVESGGGLVQAGGSLRLSCAASGRIFYSYAMAWYRQAPGKERELVAAISSRTGSTYYADSVKGRFTISRDNAKITVYLQMNSLIPEDTAVYYCAARKKYRFDYWGQGTQVTVSS” reads “high polyreactivity”; that for “QVQLVESGGGLVQAGGSLRLSCAASGRIFYSYAMGWYRQAPGKERELVAAINSGDRTNYADSVKGRFTISRDNAKNTVYLQMNSLKPEDTAVYYCATDDYPWRRHPWYAGYDSWGQGTQVTVSS”, “low polyreactivity”; that for “QVQLVESGGGLVQAGGSLRLSCAASGRIFYSYAMGWYRQAPGKERELVAAIRSTGSTNYADSVKGRFTISRDNAKNTVYLQMNSLKPEDTAVYYCAARTSYRSSLYGYWGQGTQVTVSS”, “high polyreactivity”.

For the sequence “QVQLVESGGGLVQAGGSLRLSCAASGRIFYSYAMGWYRQAPGKERELVAGINWRGSNTYYADSVKGRFTISRDNAKNTVYLQINSLKPEDTAVYYCKAGRRQDYRYNYWGQGTQVTVSS”, the “polyreactivity (PSR sort gate)” value is recorded as “high polyreactivity”. The result for “QVQLVESGGGLVQAGGSLRLSCAASGRIFYSYAMGWYRQAPGKERELVARITRGSSTYYADSVKGRFTISRDNAKNTVYLQMNSLKPEDTAVYYCAAAVYFQVAFAYYYWGQGTQVTVSS” reads “low polyreactivity”. For the sequence “QVQLVESGGGLVQAGGSLRLSCAASGRIFYSYAMGWYRQAPGKERELVATISRRGGSTYYADSVKGRFTISRDNAKNTVYLQMNSLKPEDTAVYYCNKGIPTRSVRSYDYWGQGTQVTVSS”, the “polyreactivity (PSR sort gate)” value is listed as “high polyreactivity”. The result for “QVQLVESGGGLVQAGGSLRLSCAASGRIFYTNAMGWYRQAPGKERELVAGITGSGDSTYYADSVKGRFTISRDNAKNTVYLQMNSLKPEDTAVYYCAARWRYVLMDYWGQGTQVTVSS” reads “low polyreactivity”; that for “QVQLVESGGGLVQAGGSLRLSCAASGRIFYTNGMAWYRQAPGKERELVATIRSGDGRTYYADSVKGRFTISRDNAKNTVYLQMNSLKPEDTAVYYCNASRVVYRQAYLYGFDYWGQGTQVTVSS”, “low polyreactivity”; that for “QVQLVESGGGLVQAGGSLRLSCAASGRIFYTYAMGWYRQAPGKERELVAAISRSGVSTYYADSVKGRFTISRDTAKNTVYLQMNSLKPEDTAVYYCAARWRSGFTSGDYWGQGTQVTVSS”, “low polyreactivity”. The result for “QVQLVESGGGLVQAGGSLRLSCAASGRIFYTYAMGWYRQAPGKERELVAAITTSGGRTYYADSVKGRFTISRDNAKNTVYLQMNSLKPEDTAVYYCNKLSSDSYNYWGQGTQVTVSS” reads “high polyreactivity”. To “QVQLVESGGGLVQAGGSLRLSCAASGRIFYTYAMGWYRQAPGKERELVATISRSSSTYYADSVKGRFTISRDNAKNTVYLQMNSLKPEDTAVYYCATRSASQLLDYWGQGTQVTVSS” belongs “low polyreactivity”; to “QVQLVESGGGLVQAGGSLRLSCAASGRIFYVNAMGWYRQAPGKERELVAAIRSAGGTYYADSVKGRFTISRDNAKNTVYLEMNWLNPEDSAVYYCNADASYREYRLYLIEMDYLGQGTQVTVSS”, “high polyreactivity”; to “QVQLVESGGGLVQAGGSLRLSCAASGRIFYVNAMGWYRQAPGKERELVATIRRGGDTNYADSVKGRFTISRDNAKNTVYLQMNSLKPEDTAVYYCASKAYQSSYQRYYWGQGTQVTVSS”, “high polyreactivity”.
